# Where no end group is shown, it is not given here.
# T1: Human TNFR1 (soluble) recombinant protein (human, UniProt P19438 42-181, fluorescent label from the Monolith Protein Labeling Kit RED-NHS 2nd Generation (labelled target in MST))
# T1 construct: human TNF receptor 1, soluble recombinant form; also called TNF receptor 1; sTNFR1; source: bought: PeproTech
# T1 sequence: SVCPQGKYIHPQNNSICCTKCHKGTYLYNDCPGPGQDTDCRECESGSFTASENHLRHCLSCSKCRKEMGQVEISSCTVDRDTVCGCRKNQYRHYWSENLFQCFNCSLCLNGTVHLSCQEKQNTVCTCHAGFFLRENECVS
# T2: Human TNFR2 (soluble) recombinant protein (human, UniProt P20333 33-205, fluorescent label from the Monolith Protein Labeling Kit RED-NHS 2nd Generation (labelled target in MST))
# T2 construct: human TNF receptor 2, soluble recombinant form; also called TNF receptor 2; p80; source: bought: PeproTech
# T2 sequence: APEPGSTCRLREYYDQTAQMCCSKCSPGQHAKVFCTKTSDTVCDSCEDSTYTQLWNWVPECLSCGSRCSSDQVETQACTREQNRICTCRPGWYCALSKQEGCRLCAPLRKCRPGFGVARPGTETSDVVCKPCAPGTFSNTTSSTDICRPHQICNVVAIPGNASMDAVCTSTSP
# B1: OB7 peptide (peptide)
# peptide: VLLTHTISRIAVSYQTKVNLL
# notes: Synthesised on Rink amide resin, so probably with a C-terminal amide (stated only for OB5); 21 residues as printed; source: synthetic peptide (SPPS, Rink amide resin, HPLC purified)
# B2: OB6 peptide (peptide)
# peptide: NPQAEGQLQWLNRRA
# notes: 15-residue stretch of human TNF predicted with Rosetta Peptiderive from the TNF-TNFR2 complex; Synthesised on Rink amide resin, so probably with a C-terminal amide (stated only for OB5); source: synthetic peptide (SPPS, Rink amide resin, HPLC purified)
# B3: OB5 peptide (peptide)
# peptide: NHQVEEQLEWLSQRA-NH2
# notes: 15-residue stretch of mouse TNF-α predicted with Rosetta Peptiderive from the mouse TNF-α-human TNFR1 complex; source: synthetic peptide (SPPS, Rink amide resin, HPLC purified)
# Key:
# [1] = target: T1, Human TNFR1 (soluble) recombinant …; test: MST; labelled TNFR1 or TNFR2 (RED-NHS 2nd Generation) at 20 nM, peptide titrated in 16 serial dilutions, PBS, 20 min incubation in the dark, Monolith NT.115 Pico, medium MST power; details: both partners purified
# [2] = target: T2, Human TNFR2 (soluble) recombinant …; test: as above; details: both partners purified
Binder,Kd [1] [µM],Kd [2] [µM]
B1,8.6,–
B2,–,3.9
B3,0.204,–

# Reference: paper PMC12024540, “Peptide-Based Regulation of TNF-α-Mediated Cytotoxicity” (Biomolecules, 2025)
